Reference: the supplement of paper PMC12042874
± gives the uncertainty stated by the source.

Assay: amyloid nucleation score (Sup35N fusion, yeast selection) (log enrichment); library NNK2; higher = more nucleation; inactive = no reads after selection
How it was run: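 For the nucleation score, DiMSum gave the log enrichment of output over input reads, centred on the mode score of non-aggregating sequences. Psi-negative yeast expressing Sup35N fused to peptides of 20 random codons were induced with 100 μM copper sulfate for 24 hours and grown 7 days at 30°C on medium lacking adenine and uracil. Input and output plasmid inserts were Illumina-sequenced, and sequences with under 100 input reads were excluded.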

| Substance | amyloid nucleation score |
| --- | --- |
| NARLRYGSL | -0.101 ± 0.37 |
| HEVYNKGPT | inactive |
| NGFHCG | inactive |
| FSGFNR | inactive |
| TKEIVEGINTQLYRWTLFG | -0.429 ± 0.25 |
| LDPNSYHKSRWFNMMSFIRV | 0.611 ± 0.81 |
| FLMFQNGCFLNDILVLRNAR | -0.472 ± 0.26 |
| LELVCRPISMSGWSGYHTCR | 0.983 ± 0.41 |
| GIMSFG | 1.66 ± 0.43 |
| LLRRNFNYVYIIYLILSSPV | inactive |
| TCTVASLYLGAFDWNYVEAV | 3.08 ± 0.12 |
| HSFHTVSTARRLKQDPYMR | -0.387 ± 0.64 |
| QYFFNMMLMMDMLSLGGLSY | -0.063 ± 0.45 |
| RIFITIRIINPPKDFFIRCY | inactive |
| FLFFGVGMMCEARDAPMVAF | 0.073 ± 1.1 |
| EAAYLVFSCVMCTFYFEFCF | 2.55 ± 0.089 |
| TYMSYFSSTWKILVGAHWRR | 1.85 ± 0.18 |
| LCWSYCRVKCGHMFVGVRGS | 0.58 ± 0.56 |
| QFVNQRSYKGSLTFFMIRGR | inactive |
| NHGWLYGWVVVNYTFTTGVM | -1.63 ± 0.39 |
| HCVMLHGGSPRHLNRRTDIC | 0.292 ± 0.27 |
| FTALSIGLIIVMLRLYRRCF | -0.733 ± 0.64 |

| Substance | amyloid nucleation score |
| --- | --- |
| VYAYRTEFQRW | 0.886 ± 0.47 |
| GDAWGTSNIDQSWKLYLSGT | -0.12 ± 0.3 |
| RITPFWYQRIYRIMY | -0.339 ± 0.22 |
| NAPLCFKHKSRL | -0.995 ± 0.44 |
| TVLFKGLRYRRNFKFGTQTT | -0.056 ± 0.76 |
| NKNRKQSLDKPS | -0.493 ± 1.1 |
| GLYYASYNN | -1.63 ± 0.5 |
| SNNHND | inactive |
| CVYPGEMLWRI | -0.609 ± 0.76 |
| EDKNLVWLLCQGEM | 4.43 ± 0.058 |
| RSRDRGRCWFMMSRGMGGVA | 0.483 ± 0.56 |
| YLSGYRLRTVVAVDTGMWYV | 2.65 ± 0.13 |
| SYHNVG | -0.974 ± 0.61 |
| KDKGKNDRAIAWVLWGICVL | 0.51 ± 0.51 |
| YNKWLMASLPRIVGT | -0.47 ± 1.1 |
| IFVALEIGVVNVDQVAKDVC | 6.75 ± 0.069 |
| NRHMLNTDRRPQVRLHFGTL | 0.232 ± 0.37 |
| AYRRYDWYFMLVRLLY | 0.795 ± 0.5 |
| RDMLRQMNSYQEYLFVRLDN | -0.763 ± 1.1 |
| IVDKVGHRVYEFVIYLTEDG | inactive |
| VVNDIATLLRVMNEYYAESA | -0.531 ± 0.79 |
| KSCSEV | -0.047 ± 0.35 |

| Substance | amyloid nucleation score |
| --- | --- |
| LCSTHVMKLWFYVSFLLF | -0.397 ± 0.78 |
| FSSEGLRIRKIRQGISISLC | -1.21 ± 1.1 |
| TACSQVVGVIHIIVGRGRSR | 7.292 ± 0.045 |
| SMIIQTQHI | 0.024 ± 0.55 |
| LYGTE | 0.244 ± 0.2 |
| ASFQLELS | 0.438 ± 0.38 |
| SYVAFLSTTRASSMI | inactive |
| FYRTSRASAGLS | -0.237 ± 0.79 |
| RWGMRYIMDWY | 0.007 ± 1.1 |
| GWVCRKRWVVLYMKICMIRR | -0.249 ± 0.21 |
| FHPPTGPPYINEMIGASTDR | -0.069 ± 0.27 |
| NNRSELVPKSANRMGFTSLA | -0.278 ± 0.29 |
| PRLCDECPSCVDLSGVWNPY | inactive |
| SLYCF | inactive |
| VVYRYRVRHCL | 0.725 ± 0.27 |
| CWRFVSCNTNYNWTMQGFYY | -1.38 ± 1.1 |
| YNKGNACISGYYGCSLA | 7.41 ± 0.083 |
| SIRLYSCSMVLTSSSVNCYQ | 1.86 ± 0.17 |
| AWFCREKGNGFFFM | inactive |
| PRWGRTMGCFSFRDPCRVTG | -0.277 ± 0.35 |
| DREWVYYCGYWECTMFRCIY | 1.12 ± 0.16 |
| CLDVLLDKGSADIYFRQSSN | -1.06 ± 0.61 |

| Substance | amyloid nucleation score |
| --- | --- |
| STYLFNSSHPVSVISEAQFS | -0.408 ± 0.79 |
| ARVIFAVSVLEFRVGYSQGA | 3.87 ± 0.086 |
| LVVSIIRGYLFPCGDPIFLW | inactive |
| RCWAAHYVDTWACNSLAVII | 1.19 ± 0.68 |
| HLRYGGFAV | 0.085 ± 0.2 |
| SAMQFRSFF | 0.94 ± 0.34 |
| RNIQYVAMEVCDFKFPVDGV | 0.223 ± 0.26 |
| FSHNTEFRVGCGYEFAVGKA | -0.262 ± 0.79 |
| IYTLP | inactive |
| TSYKVVLVTYRT | 5.81 ± 0.074 |
| GDTVRRLRLEHKSVDLMIQY | 3.73 ± 0.087 |
| NATCA | -1.01 ± 0.45 |
| SSASLGVAV | -0.517 ± 0.76 |
| AECNRHLLQAVSLY | -0.256 ± 0.29 |
| CVGGWWPRQRLFCIWFIIAV | 1.72 ± 0.31 |
| HPSLVAGDWRFTGPLFCSLG | 4.02 ± 0.071 |
| LRSLGAGAIYMPALQCRSRS | 0.255 ± 0.5 |
| SDKGYCSTFNMRQALWDYGQ | 0.081 ± 1.1 |
| FNGLVVFSEHMIRITACDEG | -0.479 ± 1 |
